From US20250320281A1

Columns and labels:
Assay in all cases: cell-based or functional assay
[1] = molecular target: HIV-1 Env of isolate MG RM-D-011 (HIV-1)
[2] = molecular target: HIV-1 Env of isolate MG RM-D-012 (HIV-1)
[3] = molecular target: HIV-1 Env of isolate MG RM-D-013 (HIV-1)
[4] = molecular target: HIV-1 Env of isolate MG RM-D-014 (HIV-1)
[5] = molecular target: HIV-1 Env of isolate MG RM-D-016 (HIV-1)
[6] = molecular target: HIV-1 Env of isolate MG RM-D-018 (HIV-1)
[7] = molecular target: HIV-1 Env of isolate MG RM-D-019 (HIV-1)
[8] = molecular target: HIV-1 Env of isolate MG RM-D-020 (HIV-1)
[9] = molecular target: HIV-1 Env of isolate MG RM-D-021 (HIV-1)
[10] = molecular target: HIV-1 Env of isolate MG RM-D-022 (HIV-1)
[11] = molecular target: HIV-1 Env of isolate MG RM-D-024 (HIV-1)
[12] = molecular target: HIV-1 Env of isolate MG RM-D-026 (HIV-1)
[13] = molecular target: HIV-1 Env of isolate MG RM-D-028 (HIV-1)
[14] = molecular target: HIV-1 Env of isolate MG RM-D-029 (HIV-1)
[15] = molecular target: HIV-1 Env of isolate MGRM-C-005 (HIV-1)
[16] = molecular target: HIV-1 Env of isolate MGRM-F1-004 (HIV-1)
[17] = molecular target: HIV-1 Env of isolate MGRM-F1-006 (HIV-1)
[18] = molecular target: HIV-1 Env of isolate MGRM-F1-008 (HIV-1)
[19] = molecular target: HIV-1 Env of isolate MGRM-F1-010 (HIV-1)
[20] = molecular target: HIV-1 Env of isolate MGRM-F1-012 (HIV-1)
[21] = molecular target: HIV-1 Env of isolate MGRM-F1-013 (HIV-1)
[22] = molecular target: HIV-1 Env of isolate MGRM-F1-014 (HIV-1)
[23] = molecular target: HIV-1 Env of isolate MGRM-F1-015 (HIV-1)
[24] = molecular target: HIV-1 Env of isolate MGRM-F1-016 (HIV-1)
[25] = molecular target: HIV-1 Env of isolate MGRM-F1-017 (HIV-1)
[26] = molecular target: HIV-1 Env of isolate MGRM-F1-018 (HIV-1)
[27] = molecular target: HIV-1 Env of isolate MGRM-F1-020 (HIV-1)
[28] = molecular target: HIV-1 Env of isolate MGRM-F1-021 (HIV-1)
[29] = molecular target: HIV-1 Env of isolate MGRM-F1-022 (HIV-1)
[30] = molecular target: HIV-1 Env of isolate MGRM-F1-023 (HIV-1)
[31] = molecular target: HIV-1 Env of pseudovirus MGRM-AE-007 (subtype AE) (HIV-1)
[32] = molecular target: HIV-1 Env of pseudovirus MGRM-AE-008 (subtype AE) (HIV-1)
[33] = molecular target: HIV-1 Env of pseudovirus MGRM-AG-001 (subtype AG) (HIV-1)
[34] = molecular target: HIV-1 Env of pseudovirus MGRM-AG-002 (subtype AG) (HIV-1)
[35] = molecular target: HIV-1 Env of pseudovirus MGRM-AG-003 (subtype AG) (HIV-1)
[36] = molecular target: HIV-1 Env of pseudovirus MGRM-AG-005 (subtype AG) (HIV-1)
[37] = molecular target: HIV-1 Env of pseudovirus MGRM-AG-006 (subtype AG) (HIV-1)
[38] = molecular target: HIV-1 Env of pseudovirus MGRM-AG-008 (subtype AG) (HIV-1)
[39] = molecular target: HIV-1 Env of pseudovirus MGRM-AG-009 (subtype AG) (HIV-1)
[40] = molecular target: HIV-1 Env of pseudovirus MGRM-AG-011 (subtype AG) (HIV-1)
[41] = molecular target: HIV-1 Env of pseudovirus MGRM-AG-012 (subtype AG) (HIV-1)
[42] = molecular target: HIV-1 Env of pseudovirus MGRM-AG-013 (subtype AG) (HIV-1)

Sequence of PGT-142 (4995_E20) (antibody) (VH): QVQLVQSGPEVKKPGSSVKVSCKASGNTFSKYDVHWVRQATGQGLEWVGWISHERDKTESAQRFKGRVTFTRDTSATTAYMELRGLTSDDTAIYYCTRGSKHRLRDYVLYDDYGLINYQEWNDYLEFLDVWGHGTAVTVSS
Sequence of PGT-142 (4995_E20) (antibody) (VL): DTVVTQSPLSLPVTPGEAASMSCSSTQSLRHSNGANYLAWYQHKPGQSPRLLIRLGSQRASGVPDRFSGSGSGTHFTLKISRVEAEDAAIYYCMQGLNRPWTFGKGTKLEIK
Sequence of PGT-143 (4980_N08) (antibody) (VH): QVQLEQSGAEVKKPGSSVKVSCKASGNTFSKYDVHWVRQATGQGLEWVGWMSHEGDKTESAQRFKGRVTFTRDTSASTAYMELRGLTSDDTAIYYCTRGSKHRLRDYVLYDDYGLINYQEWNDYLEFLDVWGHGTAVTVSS
Sequence of PGT-143 (4980_N08) (antibody) (VL): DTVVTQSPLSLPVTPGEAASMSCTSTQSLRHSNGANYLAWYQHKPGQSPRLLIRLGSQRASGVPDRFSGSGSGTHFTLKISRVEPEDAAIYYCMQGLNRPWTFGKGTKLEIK
Sequence of PGT-144 (4970_K22) (antibody) (VH): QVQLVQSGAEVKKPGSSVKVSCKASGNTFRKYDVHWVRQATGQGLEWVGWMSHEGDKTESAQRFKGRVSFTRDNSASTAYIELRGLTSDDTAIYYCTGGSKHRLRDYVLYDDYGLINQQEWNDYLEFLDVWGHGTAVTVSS
Sequence of PGT-144 (4970_K22) (antibody) (VL): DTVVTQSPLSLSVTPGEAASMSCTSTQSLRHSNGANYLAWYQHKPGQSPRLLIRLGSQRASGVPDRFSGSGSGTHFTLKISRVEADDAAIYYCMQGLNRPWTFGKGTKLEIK
Sequence of PGT-141 (4964_G22; 4993_K13) (antibody) (VH): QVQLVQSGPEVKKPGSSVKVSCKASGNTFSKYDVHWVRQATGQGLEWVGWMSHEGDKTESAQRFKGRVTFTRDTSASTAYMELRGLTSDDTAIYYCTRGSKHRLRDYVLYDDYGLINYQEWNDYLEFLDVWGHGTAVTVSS

PGT-141 (4964_G22; 4993_K13) (antibody)
IC50 [1]: > 50 mg/L | IC50 [2]: > 50 mg/L | IC50 [3]: 0.179 mg/L | IC50 [4]: 0.01 mg/L | IC50 [5]: > 50 mg/L | IC50 [6]: > 50 mg/L | IC50 [7]: 1.66 mg/L | IC50 [8]: > 50 mg/L | IC50 [9]: > 50 mg/L | IC50 [10]: > 50 mg/L | IC50 [11]: > 50 mg/L | IC50 [12]: 32.5 mg/L | IC50 [13]: < 50 mg/L | IC50 [14]: 0.057 mg/L | IC50, pseudovirus neutralization [15]: 8.83 mg/L | IC50 [16]: 0.021 mg/L | IC50 [17]: 8.99 mg/L | IC50 [18]: 0.193 mg/L | IC50 [19]: > 50 mg/L | IC50 [20]: > 50 mg/L | IC50 [21]: 0.043 mg/L | IC50 [22]: 0.001 mg/L | IC50 [23]: > 50 mg/L | IC50 [24]: > 50 mg/L | IC50 [25]: 30.8 mg/L | IC50 [26]: 0.785 mg/L | IC50 [27]: 1.15 mg/L | IC50 [28]: > 50 mg/L | IC50 [29]: 0.114 mg/L | IC50 [30]: 0.307 mg/L | IC50, pseudovirus neutralization [31]: 33.1 mg/L | IC50, pseudovirus neutralization [32]: 0.101 mg/L | IC50, pseudovirus neutralization [33]: 18 mg/L | IC50, pseudovirus neutralization [34]: 0.049 mg/L | IC50, pseudovirus neutralization [35]: > 50 mg/L | IC50, pseudovirus neutralization [36]: 0.497 mg/L | IC50, pseudovirus neutralization [37]: > 50 mg/L | IC50, pseudovirus neutralization [38]: 19.2 mg/L | IC50, pseudovirus neutralization [39]: > 50 mg/L | IC50, pseudovirus neutralization [40]: 0.118 mg/L | IC50, pseudovirus neutralization [41]: > 50 mg/L | IC50, pseudovirus neutralization [42]: > 50 mg/L

PGT-142 (4995_E20) (antibody)
IC50 [1]: > 50 mg/L | IC50 [2]: > 50 mg/L | IC50 [3]: 0.221 mg/L | IC50 [4]: 0.005 mg/L | IC50 [5]: > 50 mg/L | IC50 [6]: > 50 mg/L | IC50 [7]: 0.155 mg/L | IC50 [8]: > 50 mg/L | IC50 [9]: > 50 mg/L | IC50 [10]: > 50 mg/L | IC50 [11]: > 50 mg/L | IC50 [12]: 12.5 mg/L | IC50 [13]: > 50 mg/L | IC50 [14]: 0.192 mg/L | IC50 [16]: 0.013 mg/L | IC50 [17]: 12.9 mg/L | IC50 [18]: 0.124 mg/L | IC50 [19]: > 50 mg/L | IC50 [20]: > 50 mg/L | IC50 [21]: 0.023 mg/L | IC50 [22]: 0.001 mg/L | IC50 [23]: > 50 mg/L | IC50 [24]: > 50 mg/L | IC50 [25]: 23.5 mg/L | IC50 [26]: 0.404 mg/L | IC50 [27]: 0.824 mg/L | IC50 [28]: > 50 mg/L | IC50 [29]: 0.04 mg/L | IC50 [30]: 0.602 mg/L | IC50, pseudovirus neutralization [31]: 6.7 mg/L | IC50, pseudovirus neutralization [32]: 0.08 mg/L | IC50, pseudovirus neutralization [33]: 12.4 mg/L | IC50, pseudovirus neutralization [34]: 0.044 mg/L | IC50, pseudovirus neutralization [35]: > 50 mg/L | IC50, pseudovirus neutralization [36]: 0.383 mg/L | IC50, pseudovirus neutralization [37]: > 50 mg/L | IC50, pseudovirus neutralization [38]: 12.1 mg/L | IC50, pseudovirus neutralization [39]: > 50 mg/L | IC50, pseudovirus neutralization [40]: 0.081 mg/L | IC50, pseudovirus neutralization [41]: > 50 mg/L | IC50, pseudovirus neutralization [42]: 21.7 mg/L

PGT-143 (4980_N08) (antibody)
IC50 [1]: > 50 mg/L | IC50 [2]: > 50 mg/L | IC50 [3]: 0.386 mg/L | IC50 [4]: 0.009 mg/L | IC50 [5]: > 50 mg/L | IC50 [6]: > 50 mg/L | IC50 [7]: 0.277 mg/L | IC50 [8]: > 50 mg/L | IC50 [9]: > 50 mg/L | IC50 [10]: > 50 mg/L | IC50 [11]: > 50 mg/L | IC50 [12]: 44.6 mg/L | IC50 [13]: > 50 mg/L | IC50 [14]: 0.2 mg/L | IC50 [16]: 0.036 mg/L | IC50 [17]: 12.3 mg/L | IC50 [18]: 0.189 mg/L | IC50 [19]: > 50 mg/L | IC50 [20]: > 50 mg/L | IC50 [21]: 0.013 mg/L | IC50 [22]: 0.001 mg/L | IC50 [23]: > 50 mg/L | IC50 [24]: > 50 mg/L | IC50 [25]: 26.3 mg/L | IC50 [26]: 0.701 mg/L | IC50 [27]: 0.98 mg/L | IC50 [28]: > 50 mg/L | IC50 [29]: 0.082 mg/L | IC50 [30]: 0.972 mg/L | IC50, pseudovirus neutralization [31]: 13.6 mg/L | IC50, pseudovirus neutralization [32]: 0.135 mg/L | IC50, pseudovirus neutralization [33]: 18.9 mg/L | IC50, pseudovirus neutralization [34]: 0.076 mg/L | IC50, pseudovirus neutralization [35]: > 50 mg/L | IC50, pseudovirus neutralization [36]: 1.11 mg/L | IC50, pseudovirus neutralization [37]: > 50 mg/L | IC50, pseudovirus neutralization [38]: 34 mg/L | IC50, pseudovirus neutralization [39]: > 50 mg/L | IC50, pseudovirus neutralization [40]: 0.156 mg/L | IC50, pseudovirus neutralization [41]: > 50 mg/L | IC50, pseudovirus neutralization [42]: > 50 mg/L

PGT-144 (4970_K22) (antibody)
IC50 [1]: > 50 mg/L | IC50 [2]: > 50 mg/L | IC50 [3]: > 50 mg/L | IC50 [4]: 0.113 mg/L | IC50 [5]: > 50 mg/L | IC50 [6]: > 50 mg/L | IC50 [7]: > 50 mg/L | IC50 [8]: > 50 mg/L | IC50 [9]: > 50 mg/L | IC50 [10]: > 50 mg/L | IC50 [11]: > 50 mg/L | IC50 [12]: > 50 mg/L | IC50 [13]: > 50 mg/L | IC50 [14]: 0.459 mg/L | IC50 [16]: 0.105 mg/L | IC50 [17]: 20.6 mg/L | IC50 [18]: 0.507 mg/L | IC50 [19]: > 50 mg/L | IC50 [20]: > 50 mg/L | IC50 [21]: 0.509 mg/L | IC50 [22]: 0.014 mg/L | IC50 [23]: > 50 mg/L | IC50 [24]: > 50 mg/L | IC50 [25]: > 50 mg/L | IC50 [26]: > 50 mg/L | IC50 [27]: 8.93 mg/L | IC50 [28]: > 50 mg/L | IC50 [29]: 0.382 mg/L | IC50 [30]: 1.16 mg/L | IC50, pseudovirus neutralization [31]: > 50 mg/L | IC50, pseudovirus neutralization [32]: 3.55 mg/L | IC50, pseudovirus neutralization [33]: > 50 mg/L | IC50, pseudovirus neutralization [34]: 7.78 mg/L | IC50, pseudovirus neutralization [35]: > 50 mg/L | IC50, pseudovirus neutralization [36]: > 50 mg/L | IC50, pseudovirus neutralization [37]: > 50 mg/L | IC50, pseudovirus neutralization [38]: > 50 mg/L | IC50, pseudovirus neutralization [39]: > 50 mg/L | IC50, pseudovirus neutralization [40]: 44.6 mg/L | IC50, pseudovirus neutralization [41]: > 50 mg/L | IC50, pseudovirus neutralization [42]: > 50 mg/L
